Test results from paper PMC8881611, “A mechanism of origin licensing control through autoinhibition of S. cerevisiae ORC·DNA·Cdc6” (Nature Communications, 2022).

T1: S. cerevisiae Orc1 (S. cerevisiae, UniProt P54784 1-914)
T1 construct: Orc1, S. cerevisiae, wild type; Stood in the assays as a subunit of ScORC·DNA(·Cdc6); also called ScOrc1; source: High5 insect cells, co-expressed and purified as a subunit of ScORC; not shown: His6, N-terminal, cleaved
T1 sequence (looked up): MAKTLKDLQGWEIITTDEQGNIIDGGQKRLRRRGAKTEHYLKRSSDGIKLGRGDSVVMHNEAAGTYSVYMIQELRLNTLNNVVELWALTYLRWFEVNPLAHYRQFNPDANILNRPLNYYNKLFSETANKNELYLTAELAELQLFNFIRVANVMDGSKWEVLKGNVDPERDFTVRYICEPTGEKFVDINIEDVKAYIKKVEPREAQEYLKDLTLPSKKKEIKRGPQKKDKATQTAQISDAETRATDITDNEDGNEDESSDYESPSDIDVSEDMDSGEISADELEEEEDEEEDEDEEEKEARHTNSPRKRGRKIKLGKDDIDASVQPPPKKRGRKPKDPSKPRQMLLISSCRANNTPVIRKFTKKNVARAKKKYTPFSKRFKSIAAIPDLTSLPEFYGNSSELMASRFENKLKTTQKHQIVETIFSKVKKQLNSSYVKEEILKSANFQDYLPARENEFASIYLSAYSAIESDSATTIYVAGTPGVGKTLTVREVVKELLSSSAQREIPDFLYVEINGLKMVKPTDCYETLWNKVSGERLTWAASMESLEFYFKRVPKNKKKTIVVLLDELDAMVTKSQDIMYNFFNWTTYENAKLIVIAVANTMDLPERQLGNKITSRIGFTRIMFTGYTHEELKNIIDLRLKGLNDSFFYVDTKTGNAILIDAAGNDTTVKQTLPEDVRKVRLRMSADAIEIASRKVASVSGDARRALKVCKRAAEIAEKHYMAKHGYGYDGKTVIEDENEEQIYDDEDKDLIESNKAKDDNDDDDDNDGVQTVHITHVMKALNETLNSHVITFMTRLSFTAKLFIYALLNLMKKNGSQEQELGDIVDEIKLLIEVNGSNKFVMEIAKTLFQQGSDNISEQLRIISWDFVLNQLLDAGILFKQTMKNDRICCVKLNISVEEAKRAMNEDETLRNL

B1: S. cerevisiae Cdc6 (ScCdc6), full length (natural protein, UniProt P09119 1-513, looked up)
chain: MSAIPITPTKRIRRNLFDDAPATPPRPLKRKKLQFTDVTPESSPEKLQFGSQSIFLRTKALLQKSSELVNLNSSDGALPARTAEYEQVMNFLAKAISEHRSDSLYITGPPGTGKTAQLDMIIRQKFQSLPLSLSTPRSKDVLRHTNPNLQNLSWFELPDGRLESVAVTSINCISLGEPSSIFQKIFDSFQDLNGPTLQIKNMQHLQKFLEPYHKKTTFVVVLDEMDRLLHANTSETQSVRTILELFLLAKLPTVSFVLIGMANSLDMKDRFLSRLNLDRGLLPQTIVFQPYTAEQMYEIVIQKMSSLPTIIFQPMAIKFAAKKCAGNTGDLRKLFDVLRGSIEIYELEKRFLLSPTRGSLNSAQVPLTPTTSPVKKSYPEPQGKIGLNYIAKVFSKFVNNNSTRTRIAKLNIQQKLILCTIIQSLKLNSDATIDESFDHYIKAITKTDTLAPLQRNEFLEICTILETCGLVSIKKTKCKGKTKRFVDKIDVDLDMREFYDEMTKISILKPFLH
notes: Cdc6, S. cerevisiae, wild type; also called co-loader; source: High5 insect cells, baculovirus, purified as ScORC (HisTrap, amylose, TEV cleavage, HisTrap, Superdex 200); not shown: His6, N-terminal, cleaved; MBP, N-terminal, cleaved
B2: S. cerevisiae Orc6 (natural protein, UniProt P38826 1-435, looked up)
chain: MSMQQVQHCVAEVLRLDPQEKPDWSSGYLKKLTNATSILYNTSLNKVMLKQDEEVARCHICAYIASQKMNEKHMPDLCYYIDSIPLEPKKAKHLMNLFRQSLSNSSPMKQFAWTPSPKKNKRSPVKNGGRFTSSDPKELRNQLFGTPTKVRKSQNNDSFVIPELPPMQTNESPSITRRKLAFEEDEDEDEEEPGNDGLSLKSHSNKSITGTRNVDSDEYENHESDPTSEEEPLGVQESRSGRTKQNKAVGKPQSELKTAKALRKRGRIPNSLLVKKYCKMTTEEIIRLCNDFELPREVAYKIVDEYNINASRLVCPWQLVCGLVLNCTFIVFNERRRKDPRIDHFIVSKMCSLMLTSKVDDVIECVKLVKELIIGEKWFRDLQIRYDDFDGIRYDEIIFRKLGSMLQTTNILVTDDQYNIWKKRIEMDLALTEPL
modifications: mixture of unphosphorylated and phosphorylated Orc6, including established CDK sites (sites not given)
notes: Orc6, S. cerevisiae, wild type; Stood in the assays as a subunit of ScORC·DNA(·Cdc6); also called ScOrc6; holds Orc6-CBN (N-terminal cyclin box fold) and Orc6-CBC (C-terminal cyclin box fold); source: High5 insect cells, co-expressed and purified as a subunit of ScORC

Legend:
Assay in all cases: cryo-EM structure; ScORC (2.5 uM), 84 bp ARS1 DNA (3 uM) and ScCdc6 (6.8 uM) reconstituted with 1 mM ATP, purified on Superose 6 in 25 mM HEPES-KOH pH 7.6, 250 mM potassium acetate, 10 mM magnesium acetate, 1 mM DTT, 0.2 mM ATP; not cross-linked; masked 3D classification
Conditions in all cases: both partners purified
[1] = target: T2, S. cerevisiae Origin Recognition Complex (ScORC), full-length Orc1-6 (S. cerevisiae, UniProt P54784 1-914; P32833 1-620; P54790 1-616; P54791 1-529; P50874 1-479; P38826 …, mixture of unphosphorylated and phosphorylated Orc6, including established CDK sites (sites not given))
T2 construct: Orc1, S. cerevisiae, wild type; Orc2, S. cerevisiae, wild type; Orc3, S. cerevisiae, wild type; Orc4, S. cerevisiae, wild type; Orc5, S. cerevisiae, wild type; Orc6, S. cerevisiae, wild type; also called initiator; source: High5 insect cells co-infected with baculoviruses, purified (HisTrap, amylose, TEV cleavage, HisTrap, Sephacryl S-400); not shown: His6, N-terminal, cleaved; MBP, N-terminal, …
T2 sequence (P32833 whole entry, chain 2 of 4): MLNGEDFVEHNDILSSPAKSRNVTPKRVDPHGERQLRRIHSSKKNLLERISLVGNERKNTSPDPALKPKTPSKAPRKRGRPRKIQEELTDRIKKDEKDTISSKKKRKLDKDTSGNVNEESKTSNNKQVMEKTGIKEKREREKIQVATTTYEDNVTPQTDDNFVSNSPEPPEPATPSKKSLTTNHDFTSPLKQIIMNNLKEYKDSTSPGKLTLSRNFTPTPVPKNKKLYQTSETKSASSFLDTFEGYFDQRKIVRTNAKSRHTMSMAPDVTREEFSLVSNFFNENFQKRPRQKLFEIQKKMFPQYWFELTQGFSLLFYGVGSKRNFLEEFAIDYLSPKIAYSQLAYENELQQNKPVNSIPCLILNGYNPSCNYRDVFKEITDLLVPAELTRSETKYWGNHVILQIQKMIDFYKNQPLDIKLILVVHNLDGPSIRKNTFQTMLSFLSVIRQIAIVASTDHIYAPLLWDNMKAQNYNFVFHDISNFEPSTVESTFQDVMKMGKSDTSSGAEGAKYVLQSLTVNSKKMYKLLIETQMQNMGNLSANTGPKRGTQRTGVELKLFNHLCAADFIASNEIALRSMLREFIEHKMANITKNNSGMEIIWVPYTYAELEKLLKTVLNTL
T2 sequence (P54790 whole entry, chain 3 of 4): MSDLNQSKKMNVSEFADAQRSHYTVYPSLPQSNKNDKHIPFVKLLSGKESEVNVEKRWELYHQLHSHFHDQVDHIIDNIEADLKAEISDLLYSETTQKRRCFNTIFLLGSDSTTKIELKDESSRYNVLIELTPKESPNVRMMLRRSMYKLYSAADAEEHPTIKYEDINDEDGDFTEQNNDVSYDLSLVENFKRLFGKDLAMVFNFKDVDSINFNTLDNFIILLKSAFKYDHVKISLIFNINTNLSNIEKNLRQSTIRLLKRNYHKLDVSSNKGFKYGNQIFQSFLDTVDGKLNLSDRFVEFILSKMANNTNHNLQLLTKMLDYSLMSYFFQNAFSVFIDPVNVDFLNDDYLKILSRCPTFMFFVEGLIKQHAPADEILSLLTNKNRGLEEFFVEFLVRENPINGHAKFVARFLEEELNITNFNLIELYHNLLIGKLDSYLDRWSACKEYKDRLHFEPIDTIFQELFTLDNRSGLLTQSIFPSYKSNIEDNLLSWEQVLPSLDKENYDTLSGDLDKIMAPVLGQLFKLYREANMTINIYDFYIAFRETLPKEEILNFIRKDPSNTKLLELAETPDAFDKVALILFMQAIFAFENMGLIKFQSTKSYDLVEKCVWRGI
T2 sequence (P54791 whole entry, chain 4 of 4): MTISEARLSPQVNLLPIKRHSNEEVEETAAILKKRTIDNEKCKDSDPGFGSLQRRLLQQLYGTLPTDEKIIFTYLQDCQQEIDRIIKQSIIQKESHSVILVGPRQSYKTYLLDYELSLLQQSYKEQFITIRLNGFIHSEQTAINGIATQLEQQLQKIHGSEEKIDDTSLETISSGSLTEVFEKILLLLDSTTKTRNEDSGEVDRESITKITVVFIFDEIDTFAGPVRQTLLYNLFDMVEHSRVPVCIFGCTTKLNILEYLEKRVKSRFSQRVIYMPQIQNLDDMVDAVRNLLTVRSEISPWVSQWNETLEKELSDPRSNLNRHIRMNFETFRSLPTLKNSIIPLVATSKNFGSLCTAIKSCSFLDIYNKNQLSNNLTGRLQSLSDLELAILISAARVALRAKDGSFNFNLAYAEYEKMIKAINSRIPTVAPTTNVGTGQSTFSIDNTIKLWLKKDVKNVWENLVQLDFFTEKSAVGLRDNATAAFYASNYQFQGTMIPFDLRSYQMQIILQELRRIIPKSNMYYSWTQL
T2 sequence (P50874 whole entry, chain 5 of 4): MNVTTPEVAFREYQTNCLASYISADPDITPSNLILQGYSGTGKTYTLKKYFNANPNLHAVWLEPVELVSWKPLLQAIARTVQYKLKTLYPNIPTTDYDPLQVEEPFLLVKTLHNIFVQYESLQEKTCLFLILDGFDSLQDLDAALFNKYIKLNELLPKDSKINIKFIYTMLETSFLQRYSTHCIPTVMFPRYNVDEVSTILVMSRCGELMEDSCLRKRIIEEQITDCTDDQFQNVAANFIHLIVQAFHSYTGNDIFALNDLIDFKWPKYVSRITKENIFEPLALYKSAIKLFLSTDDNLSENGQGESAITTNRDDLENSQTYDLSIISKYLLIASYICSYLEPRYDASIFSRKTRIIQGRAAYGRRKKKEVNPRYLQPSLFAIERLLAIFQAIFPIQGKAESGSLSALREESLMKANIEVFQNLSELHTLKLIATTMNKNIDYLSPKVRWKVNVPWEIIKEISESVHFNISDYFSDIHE

[2] = target: T1, S. cerevisiae Orc1
[3] = target: B1

Binder	binding result [1]	binding result [2]	binding result [3]
B1	binds	binds	
B2			binds
